In the nanobody polyreactivity screen of Harvey et al. (2022):

test: yeast display, Sf9 membrane polyspecificity reagent, FACS + sequencing; frameworks hold sequencing errors
Method in brief: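 Using colony PCR, genes from sorted yeast display clones were amplified, then sequenced on MiSeq at 2 × 250 and filtered by CDR length. The clones had been stained with 10% biotinylated, detergent-solubilized Sf9 membrane reagent for 1 hour at 4 °C and sorted by FACS into low and high (top ~1%) gates on anti-HA and streptavidin fluorescence. Polyreactivity labels come from the gate of origin.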

Sequence	polyreactivity (PSR sort gate)
QDQLVESGGGLVQAGGSLRLICAASGITFFGYVMGWYRQAPGKERELVAAINSRGGNTYYADSVKGRFTSSRDNAKNTVYLQMNSLKPEDTAVYYCAASNGYQAVTYDYWGQGTQVTVSS	high polyreactivity
QDQLVESGGGLVQAGGSLRLRCAASGSILWYYAMGWYRQAPGKERELVASISYSGGSTYYADSVKGRFTISRDNAKNTVYLQMNSLKPEDTAVYYCNADTITYQGYDYGYWGQGTQVTVSS	low polyreactivity
QDQLVESGGGLVQAGGSLRLSCAASAFIFSSNAMGWYRQAPGKEREFVAAISFRGGTTYYADSVKGRFTISRDNAKNTVYLQMNSLKPEDTAVYYCNAVRWRSGRWWWYDYWGQGTQVTVSS	low polyreactivity
QDQLVESGGGLVQAGGSLRLSCAASALIFSLNAMGWYRQAPGTERELVAAISSDDSTYYADSVKGRFTISRDNAKNTVYLQMNSLKPEDTAVYYCAAVQLVPGYVDSNDYYWGQGTQVTVSS	low polyreactivity
QDQLVESGGGLVQAGGSLRLSCAASGFIFENYTLGWYRLAPGKERELVAAITSSGGSTYYADSVKGRFTISRDNAKNTVYLPLNSLNPDVTAVYYCNKRWFRDYDYWGQGTQVTVSS	high polyreactivity
QDQLVESGGGLVQAGGSLRLSCAASGFIFGRYAMGWYRQAPGKERELVATISRCGGSTYYADSVKGRFTISRDNAKKTVYLQMNSLKPEDTAVYYCAATYYQLFGTILHGYWGQGTQVTVSS	low polyreactivity
QDQLVESGGGLVQAGGSLRLSCAASGFIFLNYTMGWYRQAPGKERELVAAISNGSDRTYYADSVKGRFTISRDKAKNTVYLQMNSLTPEDTAVYYCAKDRDFSSPPTESGFDYWGQGTQVTVSS	low polyreactivity
QDQLVESGGGLVQAGGSLRLSCAASGFIFSSYAIGWYRQAPGKERELVAAITSGGSTNYADSVKGRFTLSRDNAKNTVYLQMNSLKPEDTAVYYCATVPGGSWFFHWWSTGGDDEYWGQGTQVTVSS	low polyreactivity
QDQLVESGGGLVQAGGSLRLSCAASGFIFVVYAMGWYTQAPGKERELVAAITYSGGSTYYADSVKGRFTISRDNAKNTVDLQMNSLKPEDTAVYYCAAPEHDREFDYWGQGTQVTVSS	low polyreactivity
QDQLVESGGGLVQAGGSLRLSCAASGFTFPVYAMGWYRQAPGKEWELVAAITRGGSTNYADSVKGRFTISRDNAKNTVYLQMNSLKPEDTAVYYCNADYAVAYHPDLGDYWGQGTQVTVSS	low polyreactivity
QDQLVESGGGLVQAGGSLRLSCAASGFTFRYYAMGWYRQAPGKEREFVAAITQSGGSTYYADSVKGRFTISRDNAKNTVYLQMNSLKPEDTAVYYCNTARVKYRWYNYWGQGTQVTVSS	high polyreactivity
QDQLVESGGGLVQAGGSLRLSCAASGFTFTRNAMGWYRQAPGKERELVAAISRGGSTNYADSVKGRFTISRDNAKNTVYLQMNSLKPEDTAVYYCAKVRTRGTPGVDYYYWGQGTQVTVSS	high polyreactivity
QDQLVESGGGLVQAGGSLRLSCAASGFTIDPYAMGWYRPAPGKERELVAGISWSGGSTYYADSVKGRFTISRDNAKNTVYLQMNSLKPEVTAVYYCARDYSWLTRGSDYDYWGQGTQVTVSS	low polyreactivity
QDQLVESGGGLVQAGGSLRLSCAASGFTIERYAMGWYRQAPGKERELVAVISTSGGSTYYADSVKGRFTISRDNGKNTVYLLMNSLKPEDTAVYYCAAPSVSQYSSKKYDYWGQGTQVTVSS	low polyreactivity
QDQLVESGGGLVQAGGSLRLSCAASGGIFPPNVMGWYRQAPGKERELVAAISRSGGSTYYADSVKGRFTFSRDNAMNTVYLQMNSLKPEDTAVYYCAAANTQRGFRYDYWGQGTQVTVSS	high polyreactivity
QDQLVESGGGLVQAGGSLRLSCAASGGTFGPNAMGWYRQSPGKERELVAAISASGGITYYADSVKGRFTISRDNAKNTVYLQMNSLKPEDTAVYYCAAAITWIYSQAAFKIVQYDYWGQGTQVTVSS	low polyreactivity
QDQLVESGGGLVQAGGSLRLSCAASGGTFWAYAMGWYRQAPGKERENVAAIRRSGRTYYADSVKGRITISRDNAKNTVYLQMNRLKPEDTAVDYCAKYGPTPGTLRDDYWGQGTQVTVSS	high polyreactivity
QDQLVESGGGLVQAGGSLRLSCAASGIIFHFNDMGWYRQAPGKERELVAAITSGGSTNYADSVKGRFTISRDNAKNTLYLQMNSLKPEDTAVYYCAARRGLRLFAYRHGYWGQGTQVTVSS	low polyreactivity
QDQLVESGGGLVQAGGSLRLSCAASGIIVTYYAMGWYRQAPGKERELVAAISESGGITYYADSVKGRFTISRDNAKNTVYLQMISLKPEVTGVYYCNAEYWGYAWPYDYWGQGTQVTVSS	high polyreactivity
QDQLVESGGGLVQAGGSLRLSCAASGLIFPAYTMGWSRQAQGKERELVAAISRSGGSTYYADSVKGRFTISRDNAKNTVYLQMNSLKPEDTAVYYCAAYYSGGYDYWGLGTQVTVSS	high polyreactivity
QDQLVESGGGLVQAGGSLRLSCAASGLIVGDYAMGWYRQAPGKERELVAAITGSVTRTYYADSVKGRFTISRDNAKNTVYLQMNSLKPEDTAVYYCATRVHYIGFYDYDYWGQGTQVTVSS	low polyreactivity
QDQLVESGGGLVQAGGSLRLSCAASGLNFVRYAMGWYRQAPGKERELVATITWSGGTYYADSVKGRFTISRDNAKNTVYLQMNSLKPEDTAVSYCAADTPTPGLFYWFYPHRGYWGQGTQVTVSS	low polyreactivity
QDQLVESGGGLVQAGGSLRLSCAASGLTFPYYAMGWYRQAPGKERELVAAITWSGGTTDYADSVKGRFTISRDNAKNTVYLQMNSLKPEDTAVYYCAARFLWKGYYWGQGTQVTVSS	low polyreactivity
QDQLVESGGGLVQAGGSLRLSCAASGLTFQYNAMGWYRQAPRKERELVATISQSGGSTYYADSVKGRFTISRDNAKNTVYLQMNSLKREDTAVYYCAAYRAWTWRIRYDYWGQGTQVTVSS	low polyreactivity
QDQLVESGGGLVQAGGSLRLSCAASGLTIYHYAMGWYRQAPGKERELVADISSGGSTSYADSVKGRFTISRDNAKNTVYLQMNSLKPEDTAVYYCAADYTWERYHRQIFRLDYWGQGTQVTVSS	low polyreactivity
QDQLVESGGGLVQAGGSLRLSCAASGNTLAANAMGWYRQAPGKERELVAAITYSGGSTYYADSVKGRFTISRDNAKNTVYLQMSSLKPEDTSVYYCNAPYVFSAGFDYWGQGTQVTVSS	low polyreactivity
QDQLVESGGGLVQAGGSLRLSCAASGRFFKWYAMGWYRQAPGKEREFVAGISSSGTSTYYADSVKGRFTISRDNAKKTVSLQRNSLKPEDTAVYYCNKLGSTLDFGYWGQGTQVTVSS	high polyreactivity
QDQLVESGGGLVQAGGSLRLSCAASGRIFCSYAMGWYRQAPGKERELVAAISRRGGGTYYADSVKGRFTISRENAKNTVYLQMNSLKPEDTAFYYCAKDWYGRYYYWGQGTQVTVSS	high polyreactivity
QDQLVESGGGLVQAGGSLRLSCAASGRIFGFNAMGWYRQAPGKERELVAAISWRGGSTRYADSVKGRFTISRDNAKNTVYLQMNSLKPEDTAVYYCATPYADPGTVQYAGYNYWGQGTQVTVSS	high polyreactivity
QDQLVESGGGLVQAGGSLRLSCAASGRIFGINAMGWYIPAPGKERELVAAINWSGGSTYYADSVKGRFTISRDNAKNTVYLQMNSLKPEDTAVYYCATYQAGYYQSTYDYWGPGTQVTVSS	high polyreactivity
